# Experimental data: paper PMC8892339 (2022)
# B1: ZAP70 tandem SH2 (protein)
# chain: MPDPAAHLPFFYGSISRAEAEEHLKLAGMADGLFLLRQCLRSLGGYVLSLVHDVRFHHFPIERQLNGTYAIAGGKAHCGPAELCEFYSRDPDGLPCNLRKPCNRPSGLEPQPGVFDCLRDAMVRDYVRQTWKLEGEALEQAIISQAPQVEKLIATTAHERMPWYHSSLTREEAERKLYSGAQTDGKFLLRPRKEQGTYALSLIYGKTVYHYLISQDKAGKYCIPEGTKFDTLWQLVEYLKLKADGLIYCLKEACPNSSA
# Columns and labels:
# Experiment in all cases: SPR, 37 °C
# [1] = molecular target: CD3ζ ITAM3 NC peptide ITAM3 (Homo sapiens, UniProt P20963, both ITAM tyrosines phosphorylated peptide; tSH2-GFP fusion)
# Sequence of CD3ζ ITAM3 NC peptide ITAM3 (P20963 128-162): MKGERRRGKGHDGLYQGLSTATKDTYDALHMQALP
# [2] = molecular target: CD3ζ ITAM3 N peptide ITAM3 (Homo sapiens, UniProt P20963, N-terminal ITAM tyrosine monophosphorylated peptide; tSH2-GFP fusion)
# Sequence of CD3ζ ITAM3 N peptide ITAM3 (P20963 128-162): as above
# [3] = molecular target: CD3ζ ITAM3 C peptide ITAM3 (Homo sapiens, UniProt P20963, C-terminal ITAM tyrosine monophosphorylated peptide; tSH2-GFP fusion)
# Sequence of CD3ζ ITAM3 C peptide ITAM3 (P20963 128-162): as above
binder,measurement,setting,value
B1,Kd,[1],0.0962 µM
same,Kd,[2],20.7 µM
same,Kd,[3],7.52 µM
